The target of the assay is KCTD12 (UniProt Q6WVG3). The assay can be described thus: anti-Rluc IP of Rluc-KCTD12, GB2 blot. The conditions noted are these: reference: GB2-WT, no 8-Br-cAMP; sites S892.

For “GABAB2 (GB2) (from UniProt O88871) GB2-WT, 8-Br-cAMP 1 mM 30 min”, the percent of reference came to 103%.

These data come from article PMC4402209.
